According to publication doi:10.1101/2020.03.03.974444:

Biological target: myc-tagged human Patched-1 (Ptch1-1B-myc) (human) (UniProt Q13635)
Assay: co-IP

UniProt Q13635, sequence (Q13635 whole entry): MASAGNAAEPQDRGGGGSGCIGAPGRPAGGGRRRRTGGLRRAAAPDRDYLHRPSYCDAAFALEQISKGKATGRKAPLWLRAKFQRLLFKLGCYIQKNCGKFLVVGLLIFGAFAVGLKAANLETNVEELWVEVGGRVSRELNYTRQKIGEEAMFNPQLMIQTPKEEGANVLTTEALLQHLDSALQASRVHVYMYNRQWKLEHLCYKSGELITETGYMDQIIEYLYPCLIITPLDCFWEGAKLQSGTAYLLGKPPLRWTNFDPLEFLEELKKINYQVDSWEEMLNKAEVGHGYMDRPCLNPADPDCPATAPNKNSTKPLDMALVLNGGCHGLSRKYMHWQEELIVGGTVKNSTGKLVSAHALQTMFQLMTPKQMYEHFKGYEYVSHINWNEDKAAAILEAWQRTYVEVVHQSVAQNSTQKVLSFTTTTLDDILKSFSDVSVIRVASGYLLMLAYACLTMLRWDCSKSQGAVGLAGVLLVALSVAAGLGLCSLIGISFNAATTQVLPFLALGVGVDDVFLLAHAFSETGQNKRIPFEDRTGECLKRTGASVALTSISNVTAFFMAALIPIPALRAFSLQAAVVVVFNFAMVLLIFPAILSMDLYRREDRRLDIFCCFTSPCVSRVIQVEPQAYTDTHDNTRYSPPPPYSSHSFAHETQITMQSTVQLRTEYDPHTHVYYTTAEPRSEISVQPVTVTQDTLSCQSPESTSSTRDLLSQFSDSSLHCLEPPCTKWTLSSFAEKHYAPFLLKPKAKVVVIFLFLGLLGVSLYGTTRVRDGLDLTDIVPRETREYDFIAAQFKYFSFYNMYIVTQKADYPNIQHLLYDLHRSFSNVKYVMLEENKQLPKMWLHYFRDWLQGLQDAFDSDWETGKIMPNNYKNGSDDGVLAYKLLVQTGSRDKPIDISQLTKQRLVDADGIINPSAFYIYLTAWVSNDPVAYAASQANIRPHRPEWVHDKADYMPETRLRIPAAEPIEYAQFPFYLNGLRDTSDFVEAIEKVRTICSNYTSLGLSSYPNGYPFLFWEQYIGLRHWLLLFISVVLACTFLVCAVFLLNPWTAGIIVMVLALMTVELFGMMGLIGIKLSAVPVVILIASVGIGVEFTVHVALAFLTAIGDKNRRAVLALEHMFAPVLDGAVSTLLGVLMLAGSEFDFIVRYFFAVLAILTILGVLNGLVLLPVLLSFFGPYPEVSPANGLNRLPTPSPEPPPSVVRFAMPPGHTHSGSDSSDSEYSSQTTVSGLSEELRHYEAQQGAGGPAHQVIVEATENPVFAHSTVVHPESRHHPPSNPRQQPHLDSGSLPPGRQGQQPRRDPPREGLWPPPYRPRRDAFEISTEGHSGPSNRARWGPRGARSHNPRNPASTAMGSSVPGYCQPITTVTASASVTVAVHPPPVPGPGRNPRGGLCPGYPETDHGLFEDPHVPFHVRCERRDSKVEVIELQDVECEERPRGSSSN

percent reduction of FL-Dhh binding to Ptch1: 70 to 80%
Substance: N-terminal Sonic Hedgehog (N-Shh) (from UniProt Q62226 25-437) (domain or fragment)
